The text below walks through data of paper PMC10798159.

Experiment [1] deals with human serum albumin. The experiment is described as follows: SPR; fit kinetic; antibody as scFv; antigen as not_told; on the surface: target; avidity monovalent. In general terms: SPR reads the build-up and loss of mass on a sensor chip optically.
Experiment [2] has as its target macaque serum albumin. The description is as above.
The next experiment deals with rat serum albumin. Described as above.
Experiment [3] concerns the target human serum albumin. The experiment is described as follows: ELISA; fit steady_state; antibody as scFv; antigen as not_told; on the surface: target; avidity monovalent. For orientation: In an ELISA, binding on a coated surface is turned into a signal by an enzyme label.
Experiment [4] deals with macaque serum albumin. The experiment is described as above.

Consider SON-1210, for which the Kd with human serum albumin [1] (pH 5.8) was determined as 500 nM; with human serum albumin [1] (pH 7.4), 800 nM; in the experiment with macaque serum albumin [2] (pH 5.8), 900 nM; with macaque serum albumin [2] (pH 7.4), 2300 ± 400 nM; with rat serum albumin (pH 5.8), 5400 ± 1920 nM; with rat serum albumin (pH 7.4), 12900 ± 5100 nM. Moreover, the Kd in the experiment with human serum albumin [3] (pH 6.2) turned out to be 80 ± 10 nM; with human serum albumin [3] (pH 7.4), 60 ± 30 nM; in the experiment with macaque serum albumin [4] (pH 6.2), 600 ± 300 nM; with macaque serum albumin [4] (pH 7.4) it was 400 ± 200 nM.
